Here are results for one molecule from PMC8428690.

In experiment [1] the target is H6-spTorA-mCherry (E. coli | not stated). The experiment can be described thus: SEC; substrate (~7 μM) mixed with TorD 1:1 or 1:2, 10 min at 37°C in FPLC buffer with 5 mM DTT, then Superdex 75 at 4°C; fractions analysed by anti-6xHis Western blot. For orientation: In gel filtration, larger molecules generally elute earlier.
For experiment [2] the target is unchanged. As to the kind of experiment: SEC; fractions 19-21 of the purified 1:1 TorD/spTorA-mCherry complex pooled, centrifuged and at once re-run on the column (~2.3-3.5 μM total TorD); KD estimated from the ratio of the peaks.
Experiment [3] addresses TorD-H6 (Escherichia coli TorD, 6xHis tagged) (E. coli) (UniProt P36662). The experiment can be described thus: SEC; Ni-NTA purified TorD alone, ~170 μM total load; Superdex 75 10/300 GL, FPLC buffer (5 mM MgCl2, 150 mM NaCl, 25 mM MOPS, 25 mM MES, 25% glycerol, pH 8.0), 5 mM DTT, 4°C; dimer to monomers, KD estimated from the monomer/dimer ratio.
For experiment [4], the target named is spTorA-GFP(Alexa532) (E. coli | not stated). The experiment can be described thus: co-sedimentation; competition, apparent KD: spTorA-GFP(Alexa532) 50 nM pre-incubated with various concentrations of TorD (10 min, 37°C), then with Tat++ IMVs (A280 = 5; 10 min, 37°C), pelleted (32,000 g, 4°C, 10 min); IMV-bound precursor by in-gel fluorescence; high-BSA translocation buffer.
Sequence of spTorA-GFP(Alexa532) (E. coli | not stated) (P33225 1-39, tags left off): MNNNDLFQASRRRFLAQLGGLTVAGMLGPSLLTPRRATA

The target is the same in experiment [5]. The description is as above. This is another data set of the same source.

Like-named read-outs stand apart in the source and are kept apart here.

Sequence of H6-spTorA-mCherry (E. coli | not stated) (P33225 1-39 limits assumed): as the sequence (P33225 1-39, tags left off) above

B1: TorD-H6 (Escherichia coli TorD, 6xHis tagged) (natural protein)
chain: MTTLTAQQIACVYAWLAQLFSRELDDEQLTQIASAQMAEWFSLLKSEPPLTAAVNELENRIATLTVRDDARLELAADFCGLFLMTDKQAALPYASAYKQDEQEIKRLLVEAGMETSGNFNEPADHLAIYLELLSHLHFSLGEGTVPARRIDSLRQKTLTALWQWLPEFVARCRQYDSFGFYAALSQLLLVLVECDHQNR
In general, stoichiometry N refers to the number of molecules, sites or subunits per partner or assembly. For the molecule B1, the stoichiometry N in experiment [1] was 1. In addition, the Kd in experiment [2] was 1.5 µM; in experiment [3] it was greater than 50 µM; in experiment [4] it was 0.8 µM; in experiment [5], 1.3 µM. The percent inhibition of spTorA-GFP binding to Tat++ IMVs at ~1 μM TorD in experiment [5] came to 50%.
